What was measured:
C-reactive protein (CRP) = target: T1, C-reactive protein (CRP) (UniProt P02741 19-224); experiment: electrochemiluminescence aptasensor; linear response 0.01-1000 ng/mL, LOD 8.5 pg/mL; immobilized aptamer; CRP incubation 4 °C, 1 h on BSA-blocked aptamer electrode; wash 0.01 M PBS pH 7.4; ECL read in 3 mM TPA, 0.01 M PBS pH 7.4, room temperature; settings: protein: commercial; chain copies: 5
T1 sequence: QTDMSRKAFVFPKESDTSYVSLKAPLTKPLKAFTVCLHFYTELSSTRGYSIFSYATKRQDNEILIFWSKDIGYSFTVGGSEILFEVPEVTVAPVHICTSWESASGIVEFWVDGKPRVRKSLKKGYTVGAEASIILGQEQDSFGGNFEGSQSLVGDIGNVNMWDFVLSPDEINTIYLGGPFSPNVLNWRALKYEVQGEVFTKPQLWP

[1] = target: carcinoembryonic antigen (CEA) (UniProt P06731 35-685); experiment: electrochemiluminescence aptasensor; selectivity test; no significant ECL decrease; CRP incubation 4 °C, 1 h on BSA-blocked aptamer electrode; wash 0.01 M PBS pH 7.4; ECL read in 3 mM TPA, 0.01 M PBS pH 7.4, room temperature; settings: protein: commercial
[2] = target: carbohydrate antigen 15-3 (CA15-3) (UniProt P15941 24-1097); experiment: as above; settings: protein: commercial
Chain of carbohydrate antigen 15-3 (CA15-3) (P15941 24-1097): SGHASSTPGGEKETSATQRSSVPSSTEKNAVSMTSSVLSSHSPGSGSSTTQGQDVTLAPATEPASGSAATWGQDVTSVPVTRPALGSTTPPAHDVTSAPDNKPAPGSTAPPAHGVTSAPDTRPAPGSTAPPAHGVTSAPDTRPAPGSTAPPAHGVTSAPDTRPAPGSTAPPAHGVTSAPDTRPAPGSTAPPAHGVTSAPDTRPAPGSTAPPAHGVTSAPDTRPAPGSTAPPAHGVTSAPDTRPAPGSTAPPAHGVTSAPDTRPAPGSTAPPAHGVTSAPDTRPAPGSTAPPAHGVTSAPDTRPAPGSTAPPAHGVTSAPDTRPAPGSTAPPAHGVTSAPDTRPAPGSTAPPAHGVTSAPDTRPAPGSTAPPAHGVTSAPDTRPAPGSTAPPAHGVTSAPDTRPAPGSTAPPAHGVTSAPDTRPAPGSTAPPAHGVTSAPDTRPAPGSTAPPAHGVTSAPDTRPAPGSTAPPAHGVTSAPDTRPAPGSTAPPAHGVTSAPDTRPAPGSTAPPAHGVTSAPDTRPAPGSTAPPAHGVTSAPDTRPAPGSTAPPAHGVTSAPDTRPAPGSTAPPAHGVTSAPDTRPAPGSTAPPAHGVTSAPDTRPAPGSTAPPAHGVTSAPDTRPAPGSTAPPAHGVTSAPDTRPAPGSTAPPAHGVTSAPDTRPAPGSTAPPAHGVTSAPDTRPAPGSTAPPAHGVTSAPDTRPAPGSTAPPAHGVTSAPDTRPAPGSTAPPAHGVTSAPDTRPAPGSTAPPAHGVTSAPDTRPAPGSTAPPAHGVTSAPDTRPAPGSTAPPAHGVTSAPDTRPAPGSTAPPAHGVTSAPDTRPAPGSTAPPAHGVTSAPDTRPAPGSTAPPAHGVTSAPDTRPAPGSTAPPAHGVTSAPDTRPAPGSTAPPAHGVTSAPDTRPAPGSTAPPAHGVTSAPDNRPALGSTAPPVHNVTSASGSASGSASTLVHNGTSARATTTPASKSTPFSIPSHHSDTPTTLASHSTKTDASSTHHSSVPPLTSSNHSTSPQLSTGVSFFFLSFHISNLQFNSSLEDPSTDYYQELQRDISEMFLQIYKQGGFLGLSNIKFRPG

Chain of carcinoembryonic antigen (CEA) (P06731 35-685): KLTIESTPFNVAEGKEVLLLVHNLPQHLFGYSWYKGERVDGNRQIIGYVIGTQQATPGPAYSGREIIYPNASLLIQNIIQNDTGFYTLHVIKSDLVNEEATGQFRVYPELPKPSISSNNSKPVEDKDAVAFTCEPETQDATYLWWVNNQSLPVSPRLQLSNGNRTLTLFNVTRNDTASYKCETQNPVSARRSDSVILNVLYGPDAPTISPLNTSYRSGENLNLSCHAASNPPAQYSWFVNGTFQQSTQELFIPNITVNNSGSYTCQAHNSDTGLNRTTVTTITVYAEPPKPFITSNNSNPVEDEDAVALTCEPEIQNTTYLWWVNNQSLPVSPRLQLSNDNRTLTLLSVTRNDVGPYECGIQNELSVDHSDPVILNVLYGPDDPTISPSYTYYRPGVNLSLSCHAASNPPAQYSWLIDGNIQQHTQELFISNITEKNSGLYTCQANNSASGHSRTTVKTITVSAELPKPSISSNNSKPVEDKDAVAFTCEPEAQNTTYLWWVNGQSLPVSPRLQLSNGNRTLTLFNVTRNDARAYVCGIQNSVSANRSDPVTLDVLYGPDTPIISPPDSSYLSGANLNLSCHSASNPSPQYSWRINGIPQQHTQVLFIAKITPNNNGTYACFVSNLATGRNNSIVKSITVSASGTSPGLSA

CGAAGGGGATTCGAGGGGTGATTGCGTGCTCCATTTGGTG (ssDNA, 5'-NH2) [CRP aptamer]: binds (C-reactive protein (CRP)); no binding [1]; no binding [2].

Reference: article PMC10708393, “The Fabrication of a Probe-Integrated Electrochemiluminescence Aptasensor Based on Double-Layered Nanochannel Array with Opposite Charges for the Sensitive Determination of C-Reactive Protein”
